# Biological target: PD-L1 on CHO cell line highly expressing PD-L1 (PD-1/PD-L1 blockade bioassay kit, promega J1250) (UniProt Q9NZQ7 19-290, limits assumed)
# Assay: cell-based or functional assay
# Chain of PD-L1 on CHO cell line highly expressing PD-L1 (PD-1/PD-L1 blockade bioassay kit, promega J1250) (Q9NZQ7 19-290 limits assumed): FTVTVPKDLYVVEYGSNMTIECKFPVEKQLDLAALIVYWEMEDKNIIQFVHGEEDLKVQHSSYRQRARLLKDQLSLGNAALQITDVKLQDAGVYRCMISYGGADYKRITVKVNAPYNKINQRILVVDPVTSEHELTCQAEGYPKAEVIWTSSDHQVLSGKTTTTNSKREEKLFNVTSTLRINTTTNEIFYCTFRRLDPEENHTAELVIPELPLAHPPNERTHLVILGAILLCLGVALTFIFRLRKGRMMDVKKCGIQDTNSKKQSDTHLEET
row,Binder,"Average *EC50 [nM], PD-1/PD-L1 blockade bioassay [nM]"
1,"PDL1-16E12 (LS/4B11) (antibody, V domains shown) VH: QMQLVQSGAEVKKPGSSVKVSCKASGGTFSSYAISWVRQAPGQGLEWMGRIIPILGIANYAQKFQGRVTITADKSTSTAYMELSSLRSEDTAVYYCAKPRDGYNLVAFDIWGQGTMVTVSS VL: QLVLTQPPSVSGAPGQRVTISCTGTNSNIGAGHDVQWYQQIPGTAPKLLIYGNNNRPSGVPDRFSGSKSGTLASLAITGLQSEDEADYYCHSYDGSLSEGVFGTGTKVTVL",0.63
2,"PDL1-16E12 (LS/4E12) (antibody, V domains shown) VH: QMQLVQSGAEVKKPGSSVKVSCKASGGTFSSYAISWVRQAPGQGLEWMGRIIPILGIANYAQKFQGRVTITADKSTSTAYMELSSLRSEDTAVYYCAKPRDGYNLVAFDIWGQGTMVTVSS VL: QLVLTQPPSVSAAPGQKVTFSCTGSSSNIGAGYDVHWYQHLPGAAPRLLIYANTNRPLGVPDRFSGSKSGTSASLAITGLQAEDEADYYCQSYDNRLSGSLFGGGTKLTVL",0.49
3,"PDL1-16E12 (LS/4H11) (antibody, V domains shown) VH: QMQLVQSGAEVKKPGSSVKVSCKASGGTFSSYAISWVRQAPGQGLEWMGRIIPILGIANYAQKFQGRVTITADKSTSTAYMELSSLRSEDTAVYYCAKPRDGYNLVAFDIWGQGTMVTVSS VL: QLVLTQPPSVSGAPGQRVTISCTGSSSNVGAGYDVHWYQQLPGTAPKLLIYGNNNRPSGVPARFSGSKSGTSASLAITGLQAEDEADYYCQSYDSRLGVVFGGGTKLTVL",1.02
4,"PDL1-16E12 (LS/4G1) (antibody, V domains shown) VH: QMQLVQSGAEVKKPGSSVKVSCKASGGTFSSYAISWVRQAPGQGLEWMGRIIPILGIANYAQKFQGRVTITADKSTSTAYMELSSLRSEDTAVYYCAKPRDGYNLVAFDIWGQGTMVTVSS VL: QLVLTQPPSVSGAPGQRVTISCTGGSSNIGAGYDVHWYQQLPGTAPKLLLFGNTNRPSGVPGRFSGSKSGSSASLAITGLQSDDEADYYCQSYDSSLSGSVFGTGTKVTVL",0.47
5,"PDL1-16E12 (LS/4B12) (antibody, V domains shown) VH: QMQLVQSGAEVKKPGSSVKVSCKASGGTFSSYAISWVRQAPGQGLEWMGRIIPILGIANYAQKFQGRVTITADKSTSTAYMELSSLRSEDTAVYYCAKPRDGYNLVAFDIWGQGTMVTVSS VL: QLVLTQPPSVSGAPGQRVTISCTGSSSNIGAGYDVHWYQQLPGTAPKLIIYGDTKRASGVPDRFSGSKSGTSASLAITGLQAEDGADYYCQSYDNSLSAHAVFGTGTKVTVL",0.46
6,"PDL1-16E12 (LS/4H6) (antibody, V domains shown) VH: QMQLVQSGAEVKKPGSSVKVSCKASGGTFSSYAISWVRQAPGQGLEWMGRIIPILGIANYAQKFQGRVTITADKSTSTAYMELSSLRSEDTAVYYCAKPRDGYNLVAFDIWGQGTMVTVSS VL: QLVLTQPPSVSAAPGQTVTISCTGSSSNIGAGYDVHWYQQFPGTAPKLLIYGNNNRPSGVPDRFSGSKSGTSASLAITGLQTDDEADYFCQSYDSSLRVSSVFGTGTKVTVL",0.51
7,"PDL1-16E12 (LS/4A8) (antibody, V domains shown) VH: QMQLVQSGAEVKKPGSSVKVSCKASGGTFSSYAISWVRQAPGQGLEWMGRIIPILGIANYAQKFQGRVTITADKSTSTAYMELSSLRSEDTAVYYCAKPRDGYNLVAFDIWGQGTMVTVSS VL: QLVLTQPPSVSGAPGQRVTISCTGSSSNIGAGYDVHWYQHRPGKAPQLLIYGDNNRPSGIPDRFSGSKSGTSASLAITGLQPEDEADYYCQSFDSRLGVVFGGGTKLTVL",0.83

# More lines, now with the values ahead:
row,"Average *EC50 [nM], PD-1/PD-L1 blockade bioassay [nM]",Binder
1,0.48,"PDL1-16E12 (LS/4A6) (antibody, V domains shown) VH: QMQLVQSGAEVKKPGSSVKVSCKASGGTFSSYAISWVRQAPGQGLEWMGRIIPILGIANYAQKFQGRVTITADKSTSTAYMELSSLRSEDTAVYYCAKPRDGYNLVAFDIWGQGTMVTVSS VL: QLVLTQPTSVSGAPGQRVIISCTGSSSNIGAGYDVHWYQQLPGTAPKLLIYGNTNRPSGVPDRFSGSKSGTAASLAITGLQAEDEADYYCQSFDRSRSGSNVFGTGTKVTVL"
2,188,"PDL1-16E12 (LS/4B8) (antibody, V domains shown) VH: QMQLVQSGAEVKKPGSSVKVSCKASGGTFSSYAISWVRQAPGQGLEWMGRIIPILGIANYAQKFQGRVTITADKSTSTAYMELSSLRSEDTAVYYCAKPRDGYNLVAFDIWGQGTMVTVSS VL: QLVLTQPPSVSGAPGQSVTISCTGSNSDIGAGHDVHWYQQLPGAAPKLLIHGDRDRPSGVPDRFSGSKSGTSASLAITGLQPEDEADYYCQSYNNSLRGSVFGTGTKVTVL"
3,0.45,"PDL1-16E12 (LS/4A10) (antibody, V domains shown) VH: QMQLVQSGAEVKKPGSSVKVSCKASGGTFSSYAISWVRQAPGQGLEWMGRIIPILGIANYAQKFQGRVTITADKSTSTAYMELSSLRSEDTAVYYCAKPRDGYNLVAFDIWGQGTMVTVSS VL: QLVLTQPPSVSGAPGQRVTISCTGSNSNIGAGYDVHWYQQLPGTAPKLLIHGNNIRPSGVPDRFSGSRSGTSASLAITGLQADDEANYFCQSYDNSLRGSVFGTGTKVTVL"
4,0.45,"PDL1-16E12 (LS/4E5) (antibody, V domains shown) VH: QMQLVQSGAEVKKPGSSVKVSCKASGGTFSSYAISWVRQAPGQGLEWMGRIIPILGIANYAQKFQGRVTITADKSTSTAYMELSSLRSEDTAVYYCAKPRDGYNLVAFDIWGQGTMVTVSS VL: QLVLTQPPSVSGAPGQGVTISCTGDSSNIGAGYDVHWYQQFPGTAPKLLIYENSNRPSGVPDRFSGSKSGTSASLAITGLQAEDEADYYCQSYDSRLGAVFGGGTKLTVL"
5,0.57,"PDL1-16E12 (LS/4D4) (antibody, V domains shown) VH: QMQLVQSGAEVKKPGSSVKVSCKASGGTFSSYAISWVRQAPGQGLEWMGRIIPILGIANYAQKFQGRVTITADKSTSTAYMELSSLRSEDTAVYYCAKPRDGYNLVAFDIWGQGTMVTVSS VL: QLVLTQPSSVSGAPGQRVTISCTGSSSNLGAPYDVHWYQQLPGTAPKLLIYGNSNRPSGVPDRFSVSKSGTSASLAITGLQAEDEADYYCQSYDSSLSSSVFGGGTKLTVL"
6,0.63,"PDL1-16E12 (LS/4H9) (antibody, V domains shown) VH: QMQLVQSGAEVKKPGSSVKVSCKASGGTFSSYAISWVRQAPGQGLEWMGRIIPILGIANYAQKFQGRVTITADKSTSTAYMELSSLRSEDTAVYYCAKPRDGYNLVAFDIWGQGTMVTVSS VL: QFVLTQPPSVSGAPGQRVTISCTGSRSNFGAGHDVHWYQQLPGTAPKLLIYGNNNRPSGVPDRFSGSKSGTSASLAIAGLQSDDEADYYCQSYDSSLSGSVFGTGTKVTVL"
7,1.68,"PDL1-16E12 (LS/4F11) (antibody, V domains shown) VH: QMQLVQSGAEVKKPGSSVKVSCKASGGTFSSYAISWVRQAPGQGLEWMGRIIPILGIANYAQKFQGRVTITADKSTSTAYMELSSLRSEDTAVYYCAKPRDGYNLVAFDIWGQGTMVTVSS VL: QFVLTQPPSVSGAPGQRVTISCTGSSSNIGAGSDVHWYQQLPGTAPKLLIYGNNNRPSGVPDRFSGSKSGTSASLAITGLQAEDEADYYCQSYDSSLNGVVFGGGTKLTVL"

# Reference: US20190322750A1 (Y BIOLOGICS, published 2019)
